Assay results as given in patent US20260201008A1, “SECRETIN-DERIVED GLP1R SELECTIVE AGONISTS” (GUBRA A/S, priority 2023, published 2026).
Numbered stars: 1 amine (or outer) side, 2 acyl side, 3 side chain; on linkers, the order of the positions; unused ones are H or OH. Square brackets hold non-standard residues; d marks the D form. Side chains are listed from the residue outwards. Ends that are not written are not given here. * marks the point of attachment. C20 diacid = O=C(O)CCCCCCCCCCCCCCCCCCC(=O)*; γGlu = O=C(O)[C@H](CCC(=O)[*:2])N[*:1]; AEEA = NCCOCCOCC(=O)O; Aib = CC(C)(N)C(=O)O

B1: SEQ ID NO: 116 (peptide)
peptide: H[Aib]EGTFTSDISVLLEGAALQRFIQWLV-NH2
modifications: N-terminus assumed
SMILES: CC[C@H](C)[C@H](NC(=O)[C@H](Cc1ccccc1)NC(=O)[C@H](CCCNC(=N)N)NC(=O)[C@H](CCC(N)=O)NC(=O)[C@H](CC(C)C)NC(=O)[C@H](C)NC(=O)[C@H](C)NC(=O)CNC(=O)[C@H](CCC(=O)O)NC(=O)[C@H](CC(C)C)NC(=O)[C@H](CC(C)C)NC(=O)[C@@H](NC(=O)[C@H](CO)NC(=O)[C@@H](NC(=O)[C@H](CC(=O)O)NC(=O)[C@H](CO)NC(=O)[C@@H](NC(=O)[C@H](Cc1ccccc1)NC(=O)[C@@H](NC(=O)CNC(=O)[C@H](CCC(=O)O)NC(=O)C(C)(C)NC(=O)[C@@H](N)Cc1c[nH]cn1)[C@@H](C)O)[C@@H](C)O)[C@@H](C)CC)C(C)C)C(=O)N[C@@H](CCC(N)=O)C(=O)N[C@@H](Cc1c[nH]c2ccccc12)C(=O)N[C@@H](CC(C)C)C(=O)N[C@H](C(N)=O)C(C)C
B2: SEQ ID NO: 113 (peptide)
peptide: H[Aib]EGTFTSDIS[Aib]LLEGAALQRFIQWLV-NH2
modifications: N-terminus assumed
SMILES: CC[C@H](C)[C@H](NC(=O)[C@H](Cc1ccccc1)NC(=O)[C@H](CCCNC(=N)N)NC(=O)[C@H](CCC(N)=O)NC(=O)[C@H](CC(C)C)NC(=O)[C@H](C)NC(=O)[C@H](C)NC(=O)CNC(=O)[C@H](CCC(=O)O)NC(=O)[C@H](CC(C)C)NC(=O)[C@H](CC(C)C)NC(=O)C(C)(C)NC(=O)[C@H](CO)NC(=O)[C@@H](NC(=O)[C@H](CC(=O)O)NC(=O)[C@H](CO)NC(=O)[C@@H](NC(=O)[C@H](Cc1ccccc1)NC(=O)[C@@H](NC(=O)CNC(=O)[C@H](CCC(=O)O)NC(=O)C(C)(C)NC(=O)[C@@H](N)Cc1c[nH]cn1)[C@@H](C)O)[C@@H](C)O)[C@@H](C)CC)C(=O)N[C@@H](CCC(N)=O)C(=O)N[C@@H](Cc1c[nH]c2ccccc12)C(=O)N[C@@H](CC(C)C)C(=O)N[C@H](C(N)=O)C(C)C
B3: SEQ ID NO: 110 (peptide)
peptide: H[Aib]EGTFTSD[Aib]SVLLEGAALQRFIQWLV-NH2
modifications: N-terminus assumed
SMILES: CC[C@H](C)[C@H](NC(=O)[C@H](Cc1ccccc1)NC(=O)[C@H](CCCNC(=N)N)NC(=O)[C@H](CCC(N)=O)NC(=O)[C@H](CC(C)C)NC(=O)[C@H](C)NC(=O)[C@H](C)NC(=O)CNC(=O)[C@H](CCC(=O)O)NC(=O)[C@H](CC(C)C)NC(=O)[C@H](CC(C)C)NC(=O)[C@@H](NC(=O)[C@H](CO)NC(=O)C(C)(C)NC(=O)[C@H](CC(=O)O)NC(=O)[C@H](CO)NC(=O)[C@@H](NC(=O)[C@H](Cc1ccccc1)NC(=O)[C@@H](NC(=O)CNC(=O)[C@H](CCC(=O)O)NC(=O)C(C)(C)NC(=O)[C@@H](N)Cc1c[nH]cn1)[C@@H](C)O)[C@@H](C)O)C(C)C)C(=O)N[C@@H](CCC(N)=O)C(=O)N[C@@H](Cc1c[nH]c2ccccc12)C(=O)N[C@@H](CC(C)C)C(=O)N[C@H](C(N)=O)C(C)C
B4: SEQ ID NO: 111 (peptide)
peptide: H[Aib]EGTFTSD[Aib]SFLLEGAALQRFIQWLV-NH2
modifications: N-terminus assumed
SMILES: CC[C@H](C)[C@H](NC(=O)[C@H](Cc1ccccc1)NC(=O)[C@H](CCCNC(=N)N)NC(=O)[C@H](CCC(N)=O)NC(=O)[C@H](CC(C)C)NC(=O)[C@H](C)NC(=O)[C@H](C)NC(=O)CNC(=O)[C@H](CCC(=O)O)NC(=O)[C@H](CC(C)C)NC(=O)[C@H](CC(C)C)NC(=O)[C@H](Cc1ccccc1)NC(=O)[C@H](CO)NC(=O)C(C)(C)NC(=O)[C@H](CC(=O)O)NC(=O)[C@H](CO)NC(=O)[C@@H](NC(=O)[C@H](Cc1ccccc1)NC(=O)[C@@H](NC(=O)CNC(=O)[C@H](CCC(=O)O)NC(=O)C(C)(C)NC(=O)[C@@H](N)Cc1c[nH]cn1)[C@@H](C)O)[C@@H](C)O)C(=O)N[C@@H](CCC(N)=O)C(=O)N[C@@H](Cc1c[nH]c2ccccc12)C(=O)N[C@@H](CC(C)C)C(=O)N[C@H](C(N)=O)C(C)C
B5: SEQ ID NO: 117 (peptide)
peptide: H[Aib]EGTFTSDISFLLEGAALQRFIQWLV-NH2
modifications: N-terminus assumed
SMILES: CC[C@H](C)[C@H](NC(=O)[C@H](Cc1ccccc1)NC(=O)[C@H](CCCNC(=N)N)NC(=O)[C@H](CCC(N)=O)NC(=O)[C@H](CC(C)C)NC(=O)[C@H](C)NC(=O)[C@H](C)NC(=O)CNC(=O)[C@H](CCC(=O)O)NC(=O)[C@H](CC(C)C)NC(=O)[C@H](CC(C)C)NC(=O)[C@H](Cc1ccccc1)NC(=O)[C@H](CO)NC(=O)[C@@H](NC(=O)[C@H](CC(=O)O)NC(=O)[C@H](CO)NC(=O)[C@@H](NC(=O)[C@H](Cc1ccccc1)NC(=O)[C@@H](NC(=O)CNC(=O)[C@H](CCC(=O)O)NC(=O)C(C)(C)NC(=O)[C@@H](N)Cc1c[nH]cn1)[C@@H](C)O)[C@@H](C)O)[C@@H](C)CC)C(=O)N[C@@H](CCC(N)=O)C(=O)N[C@@H](Cc1c[nH]c2ccccc12)C(=O)N[C@@H](CC(C)C)C(=O)N[C@H](C(N)=O)C(C)C
B6: SEQ ID NO: 108 (peptide)
peptide: H[Aib]EGTFTSD[Aib]SWLLEGAALQRFIQWLV-NH2
modifications: N-terminus assumed
SMILES: CC[C@H](C)[C@H](NC(=O)[C@H](Cc1ccccc1)NC(=O)[C@H](CCCNC(=N)N)NC(=O)[C@H](CCC(N)=O)NC(=O)[C@H](CC(C)C)NC(=O)[C@H](C)NC(=O)[C@H](C)NC(=O)CNC(=O)[C@H](CCC(=O)O)NC(=O)[C@H](CC(C)C)NC(=O)[C@H](CC(C)C)NC(=O)[C@H](Cc1c[nH]c2ccccc12)NC(=O)[C@H](CO)NC(=O)C(C)(C)NC(=O)[C@H](CC(=O)O)NC(=O)[C@H](CO)NC(=O)[C@@H](NC(=O)[C@H](Cc1ccccc1)NC(=O)[C@@H](NC(=O)CNC(=O)[C@H](CCC(=O)O)NC(=O)C(C)(C)NC(=O)[C@@H](N)Cc1c[nH]cn1)[C@@H](C)O)[C@@H](C)O)C(=O)N[C@@H](CCC(N)=O)C(=O)N[C@@H](Cc1c[nH]c2ccccc12)C(=O)N[C@@H](CC(C)C)C(=O)N[C@H](C(N)=O)C(C)C
B7: SEQ ID NO: 112 (peptide)
peptide: H[Aib]EGTFTSDISYLLEGAALQRFIQWLV-NH2
modifications: N-terminus assumed
SMILES: CC[C@H](C)[C@H](NC(=O)[C@H](Cc1ccccc1)NC(=O)[C@H](CCCNC(=N)N)NC(=O)[C@H](CCC(N)=O)NC(=O)[C@H](CC(C)C)NC(=O)[C@H](C)NC(=O)[C@H](C)NC(=O)CNC(=O)[C@H](CCC(=O)O)NC(=O)[C@H](CC(C)C)NC(=O)[C@H](CC(C)C)NC(=O)[C@H](Cc1ccc(O)cc1)NC(=O)[C@H](CO)NC(=O)[C@@H](NC(=O)[C@H](CC(=O)O)NC(=O)[C@H](CO)NC(=O)[C@@H](NC(=O)[C@H](Cc1ccccc1)NC(=O)[C@@H](NC(=O)CNC(=O)[C@H](CCC(=O)O)NC(=O)C(C)(C)NC(=O)[C@@H](N)Cc1c[nH]cn1)[C@@H](C)O)[C@@H](C)O)[C@@H](C)CC)C(=O)N[C@@H](CCC(N)=O)C(=O)N[C@@H](Cc1c[nH]c2ccccc12)C(=O)N[C@@H](CC(C)C)C(=O)N[C@H](C(N)=O)C(C)C
B8: SEQ ID NO: 115 (peptide)
peptide: H[Aib]EGTFTSDISRLLEGAALQRFIQWLV-NH2
modifications: N-terminus assumed
SMILES: CC[C@H](C)[C@H](NC(=O)[C@H](Cc1ccccc1)NC(=O)[C@H](CCCNC(=N)N)NC(=O)[C@H](CCC(N)=O)NC(=O)[C@H](CC(C)C)NC(=O)[C@H](C)NC(=O)[C@H](C)NC(=O)CNC(=O)[C@H](CCC(=O)O)NC(=O)[C@H](CC(C)C)NC(=O)[C@H](CC(C)C)NC(=O)[C@H](CCCNC(=N)N)NC(=O)[C@H](CO)NC(=O)[C@@H](NC(=O)[C@H](CC(=O)O)NC(=O)[C@H](CO)NC(=O)[C@@H](NC(=O)[C@H](Cc1ccccc1)NC(=O)[C@@H](NC(=O)CNC(=O)[C@H](CCC(=O)O)NC(=O)C(C)(C)NC(=O)[C@@H](N)Cc1c[nH]cn1)[C@@H](C)O)[C@@H](C)O)[C@@H](C)CC)C(=O)N[C@@H](CCC(N)=O)C(=O)N[C@@H](Cc1c[nH]c2ccccc12)C(=O)N[C@@H](CC(C)C)C(=O)N[C@H](C(N)=O)C(C)C
B9: SEQ ID NO: 109 (peptide)
peptide: H[Aib]EGTFTSD[Aib]SELLEGAALQRFIQWLV-NH2
modifications: N-terminus assumed
SMILES: CC[C@H](C)[C@H](NC(=O)[C@H](Cc1ccccc1)NC(=O)[C@H](CCCNC(=N)N)NC(=O)[C@H](CCC(N)=O)NC(=O)[C@H](CC(C)C)NC(=O)[C@H](C)NC(=O)[C@H](C)NC(=O)CNC(=O)[C@H](CCC(=O)O)NC(=O)[C@H](CC(C)C)NC(=O)[C@H](CC(C)C)NC(=O)[C@H](CCC(=O)O)NC(=O)[C@H](CO)NC(=O)C(C)(C)NC(=O)[C@H](CC(=O)O)NC(=O)[C@H](CO)NC(=O)[C@@H](NC(=O)[C@H](Cc1ccccc1)NC(=O)[C@@H](NC(=O)CNC(=O)[C@H](CCC(=O)O)NC(=O)C(C)(C)NC(=O)[C@@H](N)Cc1c[nH]cn1)[C@@H](C)O)[C@@H](C)O)C(=O)N[C@@H](CCC(N)=O)C(=O)N[C@@H](Cc1c[nH]c2ccccc12)C(=O)N[C@@H](CC(C)C)C(=O)N[C@H](C(N)=O)C(C)C

target: human GLP-1 receptor (hGLP1R) (human, UniProt P43220 24-463); assay: cell-based or functional assay

Row | Binder | pEC50 hGLPR1
1 | H[Aib]EGTFTSDISYLK([AEEA-AEEA-γGlu-C20 diacid])EEA[Aib]LQRFLEHLV-NH2 (also: K14 lipid also given as C18DA[γE][OEG][OEG]-) [SEQ ID NO: 114] | 11 -log M
2 | B1 | 10.3 -log M
3 | H[Aib]EGTFTSDVSELKELAASQRFLEHLV-NH2 (not fully specified (residue 14)) [SEQ ID NO: 12] | 10.7 -log M
4 | B2 | 10.3 -log M
5 | B3 | 9.7 -log M
6 | B4 | 10.5 -log M
7 | B5 | 11 -log M
8 | B6 | 10.1 -log M
9 | B7 | 10.8 -log M
10 | B8 | 10.4 -log M
11 | B9 | 10.1 -log M

target: human secretin receptor (hSCTR) (human, UniProt P47872 23-440); assay: cell-based or functional assay
Sequence (P47872 23-440): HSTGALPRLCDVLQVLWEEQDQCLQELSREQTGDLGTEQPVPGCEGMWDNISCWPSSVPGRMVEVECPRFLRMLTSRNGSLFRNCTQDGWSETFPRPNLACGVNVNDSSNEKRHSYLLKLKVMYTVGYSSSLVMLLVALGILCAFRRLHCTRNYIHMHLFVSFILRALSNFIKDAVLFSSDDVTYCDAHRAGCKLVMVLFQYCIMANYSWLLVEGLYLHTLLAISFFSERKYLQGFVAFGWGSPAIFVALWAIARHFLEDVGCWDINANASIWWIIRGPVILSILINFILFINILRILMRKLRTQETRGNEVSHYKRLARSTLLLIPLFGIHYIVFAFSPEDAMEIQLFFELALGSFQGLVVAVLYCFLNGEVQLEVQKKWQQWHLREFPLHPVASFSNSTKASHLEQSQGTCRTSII

Row | Binder | pEC50 hSCTR
12 | H[Aib]EGTFTSDISYLK([AEEA-AEEA-γGlu-C20 diacid])EEA[Aib]LQRFLEHLV-NH2 (also: K14 lipid also given as C18DA[γE][OEG][OEG]-) [SEQ ID NO: 114] | 7.4 -log M
13 | B1 | 7.1 -log M
14 | H[Aib]EGTFTSDVSELKELAASQRFLEHLV-NH2 (not fully specified (residue 14)) [SEQ ID NO: 12] | 6.2 -log M
15 | B2 | 7.1 -log M
16 | B3 | 5.7 -log M
17 | B4 | 5.7 -log M
18 | B5 | 6.7 -log M
19 | B6 | 5.9 -log M
20 | B7 | 5.6 -log M
21 | B8 | 7.8 -log M
22 | B9 | 5.5 -log M
